Data from paper PMC3884107 (PLoS ONE, 2013).
Positions count from the first letter of the chain named. Names may count otherwise.

B1: MSP 689R (active two-chain macrophage stimulating protein; Q19-G711; C672A) (ligand, human)
chain 1: QRSPLNDFQVLRGTELQHLLHAVVPGPWQEDVADAEECAGRCGPLMDCRAFHYNVSSHGCQLLPWTQHSPHTRLRRSGRCDLFQKKDYVRTCIMNNGVGYRGTMATTVGGLPCQAWSHKFPNDHKYTPTLRNGLEENFCRNPDGDPGGPWCYTTDPAVRFQSCGIKSCREAACVWCNGEEYRGAVDRTESGRECQRWDLQHPHQHPFEPGKFLDQGLDDNYCRNPDGSERPWCYTTDPQIEREFCDLPRCGSEAQPRQEATTVSCFRGKGEGYRGTANTTTAGVPCQRWDAQIPHQHRFTPEKYACKDLRENFCRNPDGSEAPWCFTLRPGMRAAFCYQIRRCTDDVRPQDCYHGAGEQYRGTVSKTRKGVQCQRWSAETPHKPQFTFTSEPHAQLEENFCRNPDGDSHGPWCYTMDPRTPFDYCALRRCADDQPPSILDPPDQVQFEKCGKRVDRLDQRRSKLR
chain 2: VVGGHPGNSPWTVSLRNRQGQHFCGGSLVKEQWILTARQCFSSCHMPLTGYEVWLGTLFQNPQHGEPSLQRVPVAKMVCGPSGSQLVLLKLERSVTLNQRVALICLPPEWYVVPPGTKCEIAGWGETKGTGNDTVLNVALLNVISNQECNIKHRGRVRESEMCTEGLLAPVGACEGDYGGPLACFTHNAWVLEGIIIPNRVCARSRWPAVFTRVSVFVDWIHKVMRLG
notes: MSP alpha-chain of human macrophage stimulating protein: from Q19 of the pro-MSP construct to R483 (cleavage between R483 and V484); disulfide-linked to the beta-chain; Made as single-chain pro-MSP (Q19-G711; C672A; C-terminal 6-His) and cleaved by sHepsin; For the radioligand assay part of the protein was iodinated with 125I (Iodogen); also called HGFL; MST1; source: CHO cells, transiently …
B2: MSP β 689R (V484-G711; C588S, C672A) (domain or fragment, human, UniProt P26927 484-711, looked up)
chain: B1 chain 2 with C105S
notes: source: CHO cells, transiently transfected, secreted; purified (Ni-NTA, SEC); not shown: His6, C-terminal, kept
B3: MSP 689C (active two-chain macrophage stimulating protein; Q19-G711; C672A; 689C) (ligand, human)
chain 1: B1 chain 1
chain 2: B1 chain 2 with R206C
notes: MSP alpha-chain of human macrophage stimulating protein: from Q19 of the pro-MSP construct to R483 (cleavage between R483 and V484); disulfide-linked to the beta-chain; Made as single-chain pro-MSP (Q19-G711; C672A; C-terminal 6-His) and cleaved by sHepsin; For the radioligand assay part of the protein was iodinated with 125I (Iodogen); source: CHO cells, transiently transfected, secreted; …
B4: MSP β 672C 689C (V484-G711; C588S, without C672A; 689C) (domain or fragment, human, UniProt P26927 484-711, looked up)
chain: B1 chain 2 with C105S, A189C, R206C
notes: source: CHO cells, transiently transfected, secreted; purified (Ni-NTA, SEC)
B5: MSP β 689C (V484-G711; C588S, C672A; 689C) (domain or fragment, human, UniProt P26927 484-711, looked up)
chain: B1 chain 2 with C105S, R206C
notes: as for B2
B6: MSP β 672C 689R (V484-G711; C588S, without C672A) (domain or fragment, human, UniProt P26927 484-711, looked up)
chain: B1 chain 2 with C105S, A189C
notes: as for B4

Columns and labels:
[1] = target: T1, RON-Fc (human RON Sema, PSI and IPT1 domains, E25-M682, Fc fusion with human IgG1) (human, UniProt Q04912-1 25-682); experiment: ELISA; RON-Fc (1 µg/ml) captured on plate-coated rabbit anti-human IgG Fc; MSP 1000 nM-0.2 pM, 1 h, room temperature; 50 mM HEPES pH 7.2, 150 mM NaCl, 5 mM CaCl2, 1% BSA, 0.1% Tween-20; bound MSP detected with anti-His-HRP; 4-parameter fit; settings: both partners purified
T1 construct: human RON (Recepteur d'Origine Nantais, MST1R), Sema, PSI and IPT1 domains, E25-M682; also called RON-Fc fusion protein; source: CHO cells; purified (MabSelect Sure, SEC)
T1 sequence (looked up): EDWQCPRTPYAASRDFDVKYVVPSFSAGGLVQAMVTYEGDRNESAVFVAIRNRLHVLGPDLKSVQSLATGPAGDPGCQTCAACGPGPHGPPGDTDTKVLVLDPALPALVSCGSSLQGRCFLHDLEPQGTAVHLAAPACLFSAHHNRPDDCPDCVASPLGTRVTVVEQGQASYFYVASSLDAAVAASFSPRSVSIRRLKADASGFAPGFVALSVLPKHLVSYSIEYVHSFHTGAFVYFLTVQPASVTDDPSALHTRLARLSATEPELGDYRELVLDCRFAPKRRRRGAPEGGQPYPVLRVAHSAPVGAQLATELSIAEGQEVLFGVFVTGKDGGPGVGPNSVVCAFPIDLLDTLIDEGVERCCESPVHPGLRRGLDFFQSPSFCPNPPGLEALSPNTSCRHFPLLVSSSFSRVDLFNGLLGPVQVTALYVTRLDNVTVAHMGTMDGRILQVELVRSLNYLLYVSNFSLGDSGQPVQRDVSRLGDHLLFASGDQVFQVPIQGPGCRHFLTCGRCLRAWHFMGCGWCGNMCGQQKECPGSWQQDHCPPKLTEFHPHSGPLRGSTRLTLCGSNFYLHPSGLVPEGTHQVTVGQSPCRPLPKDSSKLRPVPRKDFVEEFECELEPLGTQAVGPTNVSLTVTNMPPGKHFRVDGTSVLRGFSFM

[2] = target: T2, human RON on 3T3-hRON cells (human, UniProt Q04912-1 25-1400); experiment: radioligand binding; competition of 125I-MSP with unlabeled MSP on 3T3-hRON cells, 4 h on ice; settings: one partner purified
T2 construct: human RON (Recepteur d'Origine Nantais, MST1R) expressed on the surface of 3T3-hRON cells; In the functional rows this molecule also stands for human RON on A2780-hRON, BxPC3, HCT15 and HPC5 cells; also called Recepteur d'Origine Nantais; MST1R; source: 3T3 cells stably transfected with human RON (3T3-hRON), on cells

[3] = target: T2, human RON on 3T3-hRON cells; experiment: radioligand binding; competition of 125I-MSP with unlabeled MSP (from 5 µM) on 150,000 3T3-hRON cells, 2 h at room temperature; DMEM, 1% BSA, 325 nM human IgG, 50 mM HEPES pH 7.2, 0.1% sodium azide; Scatchard analysis; settings: one partner purified
[4] = target: T1, RON-Fc (human RON Sema, PSI and IPT1 …); experiment: BLI; RON-Fc (10 µg/ml) loaded on anti-human IgG Fc biosensors, Octet RED384; MSP, MSP β or scMSP 75-4.7 nM, 400 s association, 400 s dissociation, 30°C; global 1:1 fit, KD = koff/kon; settings: both partners purified
[5] = target: T3, RON Sema/PSI (human RON residues E25-P568) (human, UniProt Q04912-1 25-568); experiment: SPR; RON Sema/PSI amine-coupled to a CM5 chip, Biacore 3000; MSP, MSP β or scMSP injected 500-3.9 nM in HBS-P (10 mM HEPES pH 7.5, 150 mM NaCl, 0.005% P20), 25°C, 30 µl/min; global 1:1 Langmuir fit, KD = koff/kon; settings: both partners purified
T3 construct: human RON (Recepteur d'Origine Nantais, MST1R), Sema and PSI domains, E25-P568; Expressed with an N-terminal gp67 secretion signal; source: Trichoplusia ni insect cells, baculovirus; purified from the media (Ni-NTA, SEC)
T3 sequence (looked up): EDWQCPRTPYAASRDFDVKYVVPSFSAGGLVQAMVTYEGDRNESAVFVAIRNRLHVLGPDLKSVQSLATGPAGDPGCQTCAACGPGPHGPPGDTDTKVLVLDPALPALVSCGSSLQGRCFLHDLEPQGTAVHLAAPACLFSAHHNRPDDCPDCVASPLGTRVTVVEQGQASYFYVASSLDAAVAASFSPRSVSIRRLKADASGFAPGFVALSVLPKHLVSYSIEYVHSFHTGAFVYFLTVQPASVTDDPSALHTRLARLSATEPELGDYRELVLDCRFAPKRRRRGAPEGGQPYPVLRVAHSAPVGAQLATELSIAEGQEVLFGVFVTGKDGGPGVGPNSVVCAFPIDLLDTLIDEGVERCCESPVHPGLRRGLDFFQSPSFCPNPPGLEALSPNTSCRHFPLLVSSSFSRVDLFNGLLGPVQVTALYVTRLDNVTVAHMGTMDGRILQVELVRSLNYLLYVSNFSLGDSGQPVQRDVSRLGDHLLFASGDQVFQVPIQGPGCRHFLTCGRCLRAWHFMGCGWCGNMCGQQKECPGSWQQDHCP

[6] = target: T1, RON-Fc (human RON Sema, PSI and IPT1 …); experiment: SPR; RON-Fc captured (50-100 RU) on immobilised anti-human Fc surfaces, CM5 chip, Biacore 3000; MSP, MSP β or scMSP injected 500-3.9 nM in HBS-P (10 mM HEPES pH 7.5, 150 mM NaCl, 0.005% P20), 25°C, 30 µl/min; global 1:1 Langmuir fit, KD = koff/kon; settings: both partners purified

| Binder | EC50 [1] [nM] | Kd [2] [nM] | Kd [3] [nM] | Kd [4] [nM] | koff [4] [s⁻¹] | kon [4] [M⁻¹ s⁻¹] | Kd [5] [nM] | koff [5] [s⁻¹] | kon [5] [M⁻¹ s⁻¹] | Kd [6] [nM] | koff [6] [s⁻¹] | kon [6] [M⁻¹ s⁻¹] |
| --- | --- | --- | --- | --- | --- | --- | --- | --- | --- | --- | --- | --- |
| B1 | 0.1 | 23 | 12.6 | – | – | – | – | – | – | – | – | – |
| B2 | 0.05 | – | – | 7.5 | 0.0035 | 470000 | 6.6 | 0.0184 | 2.71e+06 | 9.6 | 0.0175 | 1.81e+06 |
| B3 | 0.2 | 25.7 | 13 | – | – | – | – | – | – | – | – | – |
| B4 | – | – | – | – | – | – | – | – | – | 9.7 | 0.0075 | 770000 |
| B5 | 0.1 | – | – | 9.1 | 0.0093 | 1.05e+06 | 9.1 | 0.0134 | 1.46e+06 | 9 | 0.0419 | 4.42e+06 |
| B6 | – | – | – | – | – | – | – | – | – | 6.3 | 0.0066 | 860000 |
